The target in the experiment is T1, His-tagged KLHL2 protein (human, UniProt O95198 1-593).
T1 construct: Kelch Like Family Member 2 (KLHL2), human; source: recombinant
T1 sequence (looked up): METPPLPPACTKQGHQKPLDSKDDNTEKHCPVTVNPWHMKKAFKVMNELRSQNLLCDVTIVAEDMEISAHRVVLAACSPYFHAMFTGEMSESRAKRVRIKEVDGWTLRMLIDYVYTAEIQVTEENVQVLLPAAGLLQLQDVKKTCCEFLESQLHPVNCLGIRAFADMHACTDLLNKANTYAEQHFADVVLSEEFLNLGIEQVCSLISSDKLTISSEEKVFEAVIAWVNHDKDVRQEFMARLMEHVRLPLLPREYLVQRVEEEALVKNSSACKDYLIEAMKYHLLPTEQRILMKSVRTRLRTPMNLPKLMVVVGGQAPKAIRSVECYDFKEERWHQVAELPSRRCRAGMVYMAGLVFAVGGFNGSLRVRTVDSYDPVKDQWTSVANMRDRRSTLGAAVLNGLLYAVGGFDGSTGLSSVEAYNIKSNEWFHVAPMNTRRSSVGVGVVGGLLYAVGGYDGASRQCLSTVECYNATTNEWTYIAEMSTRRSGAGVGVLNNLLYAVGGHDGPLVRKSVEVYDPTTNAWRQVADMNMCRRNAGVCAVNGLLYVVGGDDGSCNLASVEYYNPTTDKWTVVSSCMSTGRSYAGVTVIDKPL
Put plainly: pull-down; recombinant GST-UCK1 protein incubated with His-tagged KLHL2 protein; GST pull-down. Particulars: both partners purified.

One molecule from publication PMC6956814, “Deubiquitinase USP28 inhibits ubiquitin ligase KLHL2-mediated uridine-cytidine kinase 1 degradation and confers sensitivity to 5'-azacytidine-resistant human leukemia cells” (Theranostics, 2020) can be followed below.

B1: Recombinant GST-UCK1 protein (enzyme, human, UniProt Q9HA47 1-277, looked up)
chain: MASAGGEDCESPAPEADRPHQRPFLIGVSGGTASGKSTVCEKIMELLGQNEVEQRQRKVVILSQDRFYKVLTAEQKAKALKGQYNFDHPDAFDNDLMHRTLKNIVEGKTVEVPTYDFVTHSRLPETTVVYPADVVLFEGILVFYSQEIRDMFHLRLFVDTDSDVRLSRRVLRDVRRGRDLEQILTQYTTFVKPAFEEFCLPTKKYADVIIPRGVDNMVAINLIVQHIQDILNGDICKWHRGGSNGRSYKRTFSEPGDHPGMLTSGKRSHLESSSRPH
notes: uridine-cytidine kinase 1 (UCK1), human; source: recombinant
B1: the binding result is “binds”.
